# Experimental data: US20150291692A1 (INNATE PHARMA, published 2015)
# Where a chain is given by its changes, count along the chain named.
# B1: antibody 19H12 (antibody, mouse IgG2b, V domains shown)
# VH: QIQLVQSGPELKKPGETVKISCKASGYTFTNFGMNWVKQAPGKGLKWMGWINTYTGEPTYADDFKGRFAFSLETSASTAYLQINNLKNEDMATYFCARNGNFGYYFDYWGQGTTLTVSS
# VL: DVLMTQTPLSLPVSLGDQASFSCRSSQNIVHSNGNTYLEWYLQKPGQSPSLLIYKVSNRFSGVPDRFSGSGSGTDFTLKITRVEAEDLGVYYCFQGSHVPFTFGSGTKLEIK
# notes: also called mo19H12
# B2: antibody 22B2 (antibody, mouse IgG1, V domains shown)
# VH: QIQLVQSGPELKKPGETVKISCKASGYTFTNYGMNWVKQAPGKGLKWMGWINTYTGEPTYADDFKGRFAFSLETSATTAYLQINNLKNEDMATYFCSRSFGSTYGDYWGQGTTLTVSS
# VL: B1 VL with F21I, N28T, S50K, T81S, F101W, S105G
# B3: Hum23-K32-15C11 (antibody, V domains shown)
# VH: EVQLVESGGGLVQPGGSLRLSCAASGFTFSDAWMDWVRQAPGKGLEWVGEIRSKANNHATYYAASVKGRFTISRDDSKNSLYLQMNSLKTEDTAVYYCTGGYYPVYWGQGTLVTVSS
# VL: DIQMTQSPSSLSASVGDRVTITCKASQDINKNIAWYQHKPGKAPKLLIHYTSTLQPGVPSRFSGSGSGRDYTFTISSLQPEDIATYYCLQYDNLLTFGGGTKVEIK
# notes: also called H2/L3
# B4: Hum12-K32-15C11 (antibody, V domains shown)
# VH: B3 VH with E50R, Y61A
# VL: B3 VL with R69T, Y71F
# notes: also called H1/L2; H1-L2
# B5: Hum13-K32-15C11 (antibody, V domains shown)
# VH: B3 VH with E50R, Y61A
# VL: B3 VL
# notes: also called H1/L3
# B6: Hum22-K32-15C11 (antibody, V domains shown)
# VH: B3 VH
# VL: B3 VL with R69T, Y71F
# notes: also called H2/L2
# B7: Hum32-K32-15C11 (antibody, V domains shown)
# VH: B3 VH with G49A, L81V
# VL: B3 VL with R69T, Y71F
# notes: also called H3/L2
# B8: Hum33-K32-15C11 (antibody, V domains shown)
# VH: B3 VH with G49A, L81V
# VL: B3 VL
# notes: also called H3/L3; H3-L3
# B9: antibody 13H1 (antibody, V domains shown)
# VH: EVQLQQSGPELVKPGASMKISCKASHYSFIGYTMNWVKQRHGKNLEWIGLINPYNGDTTYNQKFKGKASLTVDKSSSTAYMEILSLTSEDSAVYYCARENWGYPYAMDYWGQGTSVTVS
# VL: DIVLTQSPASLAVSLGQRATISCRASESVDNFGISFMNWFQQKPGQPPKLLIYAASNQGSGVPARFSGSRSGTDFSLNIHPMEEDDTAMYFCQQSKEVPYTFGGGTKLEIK
# B10: chimeric 15C11 of human IgG1 Fc isotype (antibody, V domains shown)
# VH: EVKLEESGGGLVQPGGSMKLSCAASGFTFSDAWMDWVRQSPEKGLEWVAEIRSKANNHATYYAESVKGRFTISRDDSKSSVYLRMNSLRAEDTGIYYCTGGYYPVYWGQGTLVTVSA
# VL: DIQMTQSPSSLSASLGGKVTITCKASQDINKNIAWYQHKPGKGPRLLIHYTSTLQPGFPSRFSGSGSGRDYSFSISNLEPEDLATYYCLQYDNLLTFGGGTKLEIK
# notes: Human-mouse chimeric antibody with the variable regions of murine 15C11; also called chim15C11; Chim15C11
# B11: antibody 12B11 (antibody, V domains shown)
# VH: QLVQSGPELKNPGETVKISCKASGYTFTNYGMNWVKQAPGKGLKWMGWINTYTGEPTYADDFKGRFAFSLETSASTAYLQINNLKNEDTATYFCAHGPWLAYWGQGTLVTVS
# VL: DIKMTQSPSSMYASLGERVTITCKASQDINVYLSWFQQKPGKSPKTLIYRAIRLVDGVPSRFSGSGSGQDYSLTISSLDYEDMGIYYCLQYDELPYTFGGGTKLEIE
# How the values were obtained:
# [1] = target: T1, KIR3DL2 recombinant protein (R&D Systems) (human, UniProt P43630 28-340); experiment: SPR (Biacore T100), antibody injected over immobilised recombinant KIR3DL2, bivalent affinity, pH 7.2
# T1 construct: Bought protein; also called rec KIR3DL2; recombinant KIR3DL2-Fc fusion protein; not shown: Fc part of the bought fusion protein; not described
# [2] = target: T2, KIR3DL1 expressed on cells (human, UniProt P43629 22-444); experiment: flow cytometry on HEK KIR3DL1 cells (row HEK-KIR3DL1)
# T2 construct: also called HEK-293T/KIR3DL1
# [3] = target: T3, KIR3DL2 at the surface of HUT78 Sezary Syndrome cell line (human, UniProt P43630 22-455); experiment: flow cytometry competition on HUT78 cells; naked antibody titrated against 15C11-PE (5 µg/ml)
# T3 construct: whole, on cells; Two alleles are expressed
# [4] = target: T4, NK cells, including normal KIR3DL2+ NK cells (Homo sapiens, UniProt P43630); experiment: flow cytometry of whole blood of a Sezary Syndrome patient, antibody + GaM-PE against CD4; lower gate (CD4-negative NK cells)
# T4 construct: full-length receptor on the cell surface; also called gate NK GaM PE+; KIR3DL2 on CD4-negative NK cells in the blood of the Sezary Syndrome patient
# [5] = target: T5, KIR3DL2 mutant M11A6 (I150A;M128A) (human, UniProt P43630 22-455); experiment: flow cytometry on HEK-293T cells transfected with the mutant; + no significant loss of binding, ± decrease
# T5 construct: Expressed on transfected HEK-293T cells; also called Number 29 (11A6)
# [6] = target: T6, KIR3DL2 mutant M11A3 (N99S;H100S;Q184A) (human, UniProt P43630 22-455); experiment: as above
# T6 construct: Expressed on transfected HEK-293T cells; also called Number 26 (11A3)
# [7] = target: T7, KIR3DL2 mutant M9 (L164M;P166L;V167A) (human, UniProt P43630 22-455); experiment: as above
# T7 construct: Expressed on transfected HEK-293T cells; also called Number 9
# [8] = target: T8, KIR3DL2 mutant M11A5 (V147A;Q149S) (human, UniProt P43630 22-455); experiment: as above
# T8 construct: Expressed on transfected HEK-293T cells; also called Number 28 (11A5)
# [9] = target: T9, KIR3DL2 mutant M7 (L113V;T118R) (human, UniProt P43630 22-455); experiment: as above
# T9 construct: Expressed on transfected HEK-293T cells; also called Number 7
# [10] = target: T10, KIR3DL2 mutant M10 (R136K;E141K) (human, UniProt P43630 22-455); experiment: as above
# T10 construct: Expressed on transfected HEK-293T cells; also called Number 10
# [11] = target: T11, KIR3DL2 mutant M11A4 (E130S;H131S;R145S) (human, UniProt P43630 22-455); experiment: flow cytometry on HEK-293T cells transfected with the mutant; - means substantially complete loss of binding
# T11 construct: Expressed on transfected HEK-293T cells; also called Number 27 (11A4)
# [12] = target: T12, KIR3DL2 mutant M11 (P179T;S181T) (human, UniProt P43630 22-455); experiment: as above
# T12 construct: Expressed on transfected HEK-293T cells; also called Number 11; mutant 11
# [13] = target: T13, KIR3DL2 mutant M8 + 11 (V127I;P179T;S181T) (human, UniProt P43630 22-455); experiment: as above
# T13 construct: Expressed on transfected HEK-293T cells; also called Number 23 (8 + 11)
# [14] = target: T14, KIR3DL2 on fresh Sezary Syndrome cells of patients (human, UniProt P43630 22-455); experiment: flow cytometry of whole blood of a Sezary Syndrome patient, antibody + GaM-PE against CD4; upper gate (CD4+ KIR3DL2+ leukemic Sezary cells)
# T14 construct: whole, on cells; also called SS cells
# [15] = target: T1, KIR3DL2 recombinant protein (R&D …); experiment: SCK kinetic method
# [16] = target: T1, KIR3DL2 recombinant protein (R&D …); experiment: regular kinetic method
# [17] = target: T15, KIR3DL2 mutant 2 (I60N, G62S) (human, UniProt P43630 22-455); experiment: flow cytometry on HEK-293T cells transfected with the mutant
# T15 construct: The running text prints 160N for I60N; Expressed on transfected HEK-293T cells; also called Number 2
# [18] = target: T16, KIR3DL2 mutant MD0/HLA1 (F9S, S11A) (human, UniProt P43630 22-455); experiment: as above
# T16 construct: Expressed on transfected HEK-293T cells; also called Number 31 (D0-HLA1)
# [19] = target: T17, KIR3DL2 mutant 1 (R13W, A25T, Q27R) (human, UniProt P43630 22-455); experiment: as above
# T17 construct: Expressed on transfected HEK-293T cells; also called Number 1
# [20] = target: T18, KIR3DL2 mutant 2A2 (Q56S, E57A) (human, UniProt P43630 22-455); experiment: as above
# T18 construct: Expressed on transfected HEK-293T cells; also called Number 34 (1 + 2 A2)
# [21] = target: T19, wild-type human KIR3DL2 (allele *002) expressed on transfected HEK-293T cells (human, UniProt P43630 22-455); experiment: flow cytometry on transfected HEK-293T cells
# T19 construct: also called HEK-293T/KIR3DL2; WTaKIR3DL2
# [22] = target: T11, KIR3DL2 mutant M11A4 (E130S;H131S;R145S); experiment: flow cytometry on HEK-293T cells transfected with the mutant; + no significant loss of binding, ± decrease
# [23] = target: T20, KIR3DL2 mutant M8 (V127I) (human, UniProt P43630 22-455); experiment: as above
# T20 construct: Expressed on transfected HEK-293T cells; also called Number 8; Mutant 8
# [24] = target: T21, KIR3DL2 mutant M11A1 (V178A;H180S) (human, UniProt P43630 22-455); experiment: flow cytometry on HEK-293T cells transfected with the mutant; - means substantially complete loss of binding
# T21 construct: Expressed on transfected HEK-293T cells; also called Number 24 (11A1); mutant 11A1
# [25] = target: T22, KIR3DL2 mutant M5 + 11 (P66T;P179T;S181T) (human, UniProt P43630 22-455); experiment: as above
# T22 construct: Expressed on transfected HEK-293T cells; also called Number 22 (5 + 11)
# T2 sequence (P43629 22-444 limits assumed): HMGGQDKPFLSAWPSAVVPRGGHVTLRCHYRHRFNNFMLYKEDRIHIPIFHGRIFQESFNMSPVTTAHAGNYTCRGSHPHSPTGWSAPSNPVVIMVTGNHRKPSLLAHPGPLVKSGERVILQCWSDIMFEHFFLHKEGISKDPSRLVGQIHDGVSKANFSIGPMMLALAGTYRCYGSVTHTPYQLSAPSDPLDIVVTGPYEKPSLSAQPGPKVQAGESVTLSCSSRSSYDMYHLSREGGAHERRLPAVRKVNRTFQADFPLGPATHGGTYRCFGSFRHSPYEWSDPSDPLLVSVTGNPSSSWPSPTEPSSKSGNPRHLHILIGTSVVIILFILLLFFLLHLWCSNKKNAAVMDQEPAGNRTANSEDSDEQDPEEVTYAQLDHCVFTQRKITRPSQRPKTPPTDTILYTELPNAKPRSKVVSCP
binder,measurement,setting,value
B1,Kd,[1],0.49 nM
same,binding result,[2],no binding
same,IC50 (read off the curve),[3],~0.4 µg/mL
same,% of cells in gate NK GaM PE+,[4],14.9%
same,binding result,[5],binds
same,binding result,[6],binds
same,binding result,[7],binds
same,binding result,[8],binds
same,binding result,[9],binds
same,binding result,[10],binds
same,binding result,[11],no binding
same,binding result,[12],no binding
same,binding result,[13],no binding
same,% of cells in gate CD4 GaM PE+,[14],7.5%
B2,Kd,[1],2.2 nM
same,binding result,[2],no binding
same,% of cells in gate NK GaM PE+,[4],11.6%
same,% of cells in gate CD4 GaM PE+,[14],7.7%
B3,Kd,[15],0.5 nM
same,koff,[15],0.00014 s⁻¹
same,Kd,[16],1.24 nM
same,koff,[16],0.000329 s⁻¹
B4,Kd,[15],1.63 nM
same,koff,[15],0.000109 s⁻¹
same,Kd,[16],5.61 nM
same,koff,[16],0.00132 s⁻¹
B5,Kd,[15],1.13 nM
same,koff,[15],0.000286 s⁻¹
same,Kd,[16],4.59 nM
same,koff,[16],0.00105 s⁻¹
B6,Kd,[15],0.65 nM
same,koff,[15],0.000156 s⁻¹
same,Kd,[16],1.74 nM
same,koff,[16],0.000385 s⁻¹
B7,Kd,[15],0.51 nM
same,koff,[15],0.000104 s⁻¹
same,Kd,[16],1.29 nM
same,koff,[16],0.00025 s⁻¹
B8,Kd,[15],0.33 nM
same,koff,[15],7.8e-05 s⁻¹
same,Kd,[16],0.78 nM
same,koff,[16],0.00018 s⁻¹
B9,binding result,[17],no binding
same,binding result,[18],binds
same,binding result,[19],no binding
same,binding result,[20],binds
B10,Kd,[15],0.22 nM
same,koff,[15],0.000108 s⁻¹
same,Kd,[16],0.68 nM
same,koff,[16],0.00029 s⁻¹
B11,binding result,[21],binds
same,binding result,[5],binds
same,binding result,[6],binds
same,binding result,[22],binds
same,binding result,[7],binds
same,binding result,[8],binds
same,binding result,[9],binds
same,binding result,[10],binds
same,binding result,[23],binds
same,binding result,[24],no binding
same,binding result,[12],no binding
same,binding result,[13],no binding
same,binding result,[25],no binding
